*1 amine or outer side, *2 acyl side, *3 side chain or, on linkers, in order; H or OH if unused. Where a SMILES comes first, the peptide text is derived from it. Bridges are numbered along the chain shown (N, C = ends). [ ]: non-standard residue; d: D form. The star is where a group is joined. DOTA = O=C(O)CN1CCN(CC(=O)O)CCN(CC(=O)*)CCN(CC(=O)O)CC1; 1Nal = N[C@@H](Cc1cccc2ccccc12)C(=O)O; TBMB = c1c(C[*:1])cc(C[*:3])cc1C[*:2]; Palmitoyl = CCCCCCCCCCCCCCCC(=O)*; Tle = CC(C)(C)[C@H](N)C(=O)O; Aib = CC(C)(N)C(=O)O; βAla = NCCC(=O)O; Sar = CNCC(=O)O
What was measured:
HT1080 tumor = assay: Organ distribution of 177Lu-labelled peptides in HT1080 xenograft mice; assay type: in vivo, BALB/c nu/nu mice
Experimental: (§1) General procedure for radiolabelling with Lu-177.
(§2) • 50 μL 0.25 M Na-Acetate buffer pH 5.2+0.1% Tween 20; • 10 μL [Lu-177]LuCl3 in 0.05 M HCl; and • 2 μL of the diluted peptide (2 nmols). […]
(§3) Organ distribution studies, general method: For organ distribution, the respective dose is prepared by dilution of the labeling reaction mixture in injection buffer (0.25 M Na-Acetate pH 7+0.05% Tween20). The ^177Lu-radiolabeled peptide was injected via the tail vein of the nu/nu mice (50 kBq per mouse), transplanted with the respective cell line. At indicated time points after injection the animals were sacrificed. Blood, heart, lung, spleen, liver, kidney, muscle, brain, femur, and the tumor were dissected, blotted dry, and weighed. The radioactivity was measured with a γ-counter (CobraII; Canberra Packard) along with a sample of the injection solution to calculate the percentage injected dose per gram of tissue (% ID/g).
(§4) The γ- and β-emitter ^177LuCl3 (NEZ307D, Perkin Elmer, in 0.04 M HCl), with a t1/2 of 6.7 days was used for both in vivo biodistribution and internalization studies. Labeling reactions were performed by adding 10 μL ^177LuCl3 (˜10 MBq) in 50 mM HCl, 2 μL of the diluted peptide (1 mM solution in 50 mM HEPES buffer pH 7+0.1% Tween 20 diluted from a 10 mM DMSO stock) to 50 μL 50 mM HEPES buffer pH 7 supplemented with 0.1% Tween 20. The reaction mixture was incubated at 98° C. for 10 minutes. The radiochemical yield (RCY) was determined using high performance liquid chromatography (HPLC) system equipped with a Latek P402 (Latek, Eppelheim, Germany), a HITACHI variable UV detector (absorbance was measured at 214 and 254 nm) and a gamma detector (Bioscan, WA, USA), using a Chromolith RP-18 column (100×4.6 mm; Merck). The analytical HPLC run was performed at 4 mL/min, using a linear A (0.1% trifluoroacetic acid (TFA) in water) to B (0.1% TFA in acetonitrile) gradient (0% B to 100% B in 6 min). Thin-layer chromatography was performed in parallel to confirm the results of the radio-HPLC. The RCY was generally >95%, and thus, the output of labelling reactions was directly diluted with the appropriate buffer and further unlabeled peptide if required, to use in subsequent experiments.
(§5) 5×10^6 cells of HT1080 were subcutaneously inoculated into the right trunk of male 6-week-old BALB/c nu/nu mice (Charles River Laboratories). The tumors were grown for approximately 1 week, to a maximum size of ˜200 mm^3. Respective doses were prepared by mixing a fixed quantity of 5 pmoles ^177Lu labelled peptides (at approx. 50 kBq) with different quantities of non-labelled peptide (derived from 1 mM stock solution in 0.25 M sodium acetate pH 7+0.05% Tween20) in 100 μL injection buffer (0.25 M sodium acetate pH 7+0.05% Tween20). 3 animals were used per dose and timepoint. Radiolabelled peptide solutions were injected via the tail vein, followed by sacrifice at various time points. Organs of interest (blood, heart, lung, spleen, liver, kidney, muscle, small intestine, brain, HT1080 tumor) were dissected, blotted dry, and weighed. The radioactivity was measured using a gamma counter and calculated as % ID/g.

[1] = as above; assay type: in vivo, BALB/c nu/nu mice; settings: male, BALB/c nu/nu, mouse, HT1080 tumor, iv, total radioactivity; 1 h p.i. of 150 pmoles
Experimental: as §1, §2, §3, §4, §5

MT1-MMP hemopexin domain = MT1-MMP hemopexin domain (Homo sapiens, UniProt P50281); assay: Fluorescence polarization direct binding / competition assay to MT1-MMP hemopexin domain
Experimental: Direct Binding Fluorescence Polarization or Anisotropy Assays are performed by titrating a constant concentration of fluorescent tracer (here, the fluoresceinated bicyclic peptide to be studied) with its binding partner (here, the MT1-MMP hemopexin domain). As the concentration of binding partner increases during the titration, the polarization signal changes in proportion to the fraction of bound and unbound material. This allows determination of […] (Kd) quantitatively. Assay data can be fit using standard ligand binding equations.
Typically, concentrations of the tracer are ideally well below the Kd of the tracer: titrant pair, and concentrations chosen are usually at ˜1 nM or less. The titrant (binding partner) concentration is varied from 0.1 nM up to typically 5 μM. The range is chosen such that the maximum change in fluorescent polarization can be observed. Buffers employed are phosphate buffered saline in the presence of 0.01% Tween. Experiments were run in black 384 well low-bind/low volume plates (Corning 3820), and the fluorescent polarization signal was measured using a BMG Pherastar FS plate reader. Fluorescent tracers referred to in the text are bicyclic peptides that have been fluoresceinated using 5,6-carboxyfluorescein. Fluoresceination may be performed on the N-terminal amino group of the peptide, which is separated from the bicycle core sequence by a sarcosine spacer (usually Sar10 (SEQ ID NO: 73)). This can be done during Fmoc solid phase synthesis or post-synthetically (after cyclization with the molecular scaffold reagent and purification) if the N-terminal amino group is unique to the peptide. Fluoresceination can also be performed on the C-terminus, usually on a Lysine introduced as the first C-terminal residue, which is then separated from the bicycle core sequence by a sarcosine spacer (usually Sar6 (SEQ ID NO: 69)). Thus, N-terminal tracers can have a molecular format described as Fluo-Ala-Sar10-A (SEQ ID NO: 72) (BicycleCoreSequence), and (BicycleCoreSequence)-A-Sar6-K (Fluo) (SEQ ID NO: 67) for a C-terminally fluoresceinated construct.
Fluorescent tracers used in the Examples are A-(17-69)-A-Sar6-K (Fluo) (SEQ ID NO: 67), A-(17-69-07)-A-Sar6-K (Fluo) (SEQ ID NO: 67), and A-(17-69-12)-A-Sar6-K (Fluo) (SEQ ID NO: 67). Due to the acidic nature of the 17-69 fluorescent peptides, they were typically prepared as concentrated DMSO stocks, from which dilution were prepared in 100 mM Tris pH 8 buffer.
Due to their high affinities to the MT1-MMP Hemopexin domain (PEX), the fluoresceinated derivatives of 17-69-07 and 17-69-12 (denoted as 17-69-07-N040 and 17-69-12-N005, respectively) can be used for competition experiments (using FP for detection). […] Dissociation of the complex can be measured quantitatively, and the Kd of the competitor (titrant) to the target protein determined. The advantage of the competition method is that the affinities of non-fluoresceinated bicyclic peptides can be determined accurately and rapidly.
Subsequently, the non-fluorescent competitor bicyclic peptide (usually just the bicycle core sequence) is titrated, such that it displaces the fluorescent tracer from the target protein. The displacement of the tracer is measured and associated with a drop in fluorescence polarization. The drop in fluorescence polarization is proportional to the fraction of target protein bound with the non-fluorescent titrant, and thus is a measure of the affinity of titrant to target protein. […]

Compound | blocking of tumor uptake at a dose of 500 pmoles (HT1080 tumor; 1 h post injection) | blocking of tumor uptake using 5 nmoles (HT1080 tumor; 1 h post injection) | tissue uptake at 1 h [1] [%ID/g] | Kd (MT1-MMP hemopexin domain) [µM] | also measured
CC(C)[C@H](NC(=O)[C@@H](CC(=O)O)NC(=O)[C@H](Cc1c[nH]cn1)NC(=O)CN(C)C(=O)CN(C)C(=O)CN(C)C(=O)CN(C)C(=O)CN(C)C(=O)CN(C)C(=O)CN(C)C(=O)CN(C)C(=O)CN(C)C(=O)CN(C)C(=O)CCNC(=O)CN1CCN(CC(=O)O)CCN(CC(=O)O)CCN(CC(=O)O)CC1)C(=O)N1CCC[C@H]1C(=O)N[C@H]1CSCc2cc3cc(c2)CSC[C@H](NC(=O)[C@H](Cc2cccc4ccccc24)NC(=O)[C@H](Cc2ccccc2)NC(=O)C(C)(C)NC(=O)CNC(=O)[C@H](Cc2cccc4ccccc24)NC(=O)[C@@H]2CCCN2C1=O)C(=O)N1CCC[C@H]1C(=O)N[C@@H](C(C)(C)C)C(=O)N[C@@H](CC(N)=O)C(=O)N[C@@H](CCCNC(=N)N)C(=O)NC(C)(C)C(=O)N[C@H](CC(=O)O)C(=O)N[C@H](C(N)=O)CSC3 [I-17] ({DOTA-βAla}-[Sar][Sar][Sar][Sar][Sar][Sar][Sar][Sar][Sar][Sar]H[dD]VPCP[1Nal]G[Aib]F[1Nal]CP[Tle]NR[Aib][dD]C-NH2; linker 15-22-29 via TBMB) | slightly blocked | nearly completely blocked | – | – | –
CCCCCCCCCCCCCCCC(=O)NCCC(=O)N(C)CC(=O)N(C)CC(=O)N(C)CC(=O)N(C)CC(=O)N(C)CC(=O)N[C@@H](CCCCNC(=O)CN1CCN(CC(=O)O)CCN(CC(=O)O)CCN(CC(=O)O)CC1)C(=O)N(C)CC(=O)N(C)CC(=O)N(C)CC(=O)N(C)CC(=O)N(C)CC(=O)N(C)CC(=O)N(C)CC(=O)N(C)CC(=O)N(C)CC(=O)N(C)CC(=O)N[C@@H](C)C(=O)N[C@H]1CSCc2cc3cc(c2)CSC[C@H](NC(=O)[C@H](C)NC(=O)[C@H](Cc2cccc4ccccc24)NC(=O)[C@H](CCC(=O)O)NC(=O)[C@H](CC(N)=O)NC(=O)[C@@H](C)NC1=O)C(=O)N[C@@H](C)C(=O)N[C@@H](CC(=O)O)C(=O)N[C@@H](Cc1ccccc1)C(=O)N[C@@H](Cc1ccc(O)cc1)C(=O)N[C@@H](CC(=O)O)C(=O)N[C@@H](C(C)(C)C)C(=O)N[C@H](C(N)=O)CSC3 [I-29] ({Palmitoyl-βAla}-[Sar][Sar][Sar][Sar][Sar]K(DOTA)[Sar][Sar][Sar][Sar][Sar][Sar][Sar][Sar][Sar][Sar]AC[dA]NE[1Nal]ACADFYD[Tle]C-NH2; linker 18-24-31 via TBMB) | – | – | – | – | tumour uptake (HT1080 tumor; 750 pmole per mouse, 6 hour timepoint): 4.8%
C[C@H](NC(=O)CN(C)C(=O)CN(C)C(=O)CN(C)C(=O)CN(C)C(=O)CN(C)C(=O)CN(C)C(=O)CN(C)C(=O)CN(C)C(=O)CN(C)C(=O)CN(C)C(=O)CCNC(=O)CN1CCN(CC(=O)O)CCN(CC(=O)O)CCN(CC(=O)O)CC1)C(=O)N[C@H]1CSCc2cc3cc(c2)CSC[C@H](NC(=O)[C@@H](C)NC(=O)[C@H](Cc2cccc4ccccc24)NC(=O)[C@H](CCC(=O)O)NC(=O)[C@H](CC(N)=O)NC(=O)[C@@H](C)NC1=O)C(=O)N[C@@H](CCC(=O)O)C(=O)N[C@@H](CC(=O)O)C(=O)N[C@@H](Cc1ccccc1)C(=O)N[C@@H](Cc1ccc(O)cc1)C(=O)N[C@@H](CC(=O)O)C(=O)N[C@@H](C(C)(C)C)C(=O)N[C@H](C(N)=O)CSC3 [I-24] ({DOTA-βAla}-[Sar][Sar][Sar][Sar][Sar][Sar][Sar][Sar][Sar][Sar]AC[dA]NE[1Nal][dA]CEDFYD[Tle]C-NH2; linker 12-18-25 via TBMB) | slightly blocked | nearly completely blocked | 7.04 ± 2.83 | 0.00137 ± 0.00053 | signal in the tumor compared to I-23 (HT1080 tumor; 1 h post injection): slightly lower; tumor uptake compared to 17-69-07-N144 (HT1080 tumor; 1 h post injection): significantly greater
C[C@H](NC(=O)CN(C)C(=O)CN(C)C(=O)CN(C)C(=O)CN(C)C(=O)CN(C)C(=O)CN(C)C(=O)CN(C)C(=O)CN(C)C(=O)CN(C)C(=O)CN(C)C(=O)CCNC(=O)CN1CCN(CC(=O)O)CCN(CC(=O)O)CCN(CC(=O)O)CC1)C(=O)N[C@H]1CSCc2cc3cc(c2)CSC[C@H](NC(=O)[C@H](C)NC(=O)[C@H](Cc2cccc4ccccc24)NC(=O)[C@H](CCC(=O)O)NC(=O)[C@H](CC(N)=O)NC(=O)[C@@H](C)NC1=O)C(=O)N[C@@H](C)C(=O)N[C@@H](CC(=O)O)C(=O)N[C@@H](Cc1ccccc1)C(=O)N[C@@H](Cc1ccc(O)cc1)C(=O)N[C@@H](CC(=O)O)C(=O)N[C@@H](C(C)(C)C)C(=O)N[C@H](C(N)=O)CSC3 [I-27] ({DOTA-βAla}-[Sar][Sar][Sar][Sar][Sar][Sar][Sar][Sar][Sar][Sar]AC[dA]NE[1Nal]ACADFYD[Tle]C-NH2; linker 12-18-25 via TBMB) | – | – | 0.28 ± 0.05 | > 5 | –
C[C@H](NC(=O)CN1CCN(CC(=O)O)CCN(CC(=O)O)CCN(CC(=O)O)CC1)C(=O)N[C@H]1CSCc2cc3cc(c2)CSC[C@H](NC(=O)[C@H](C)NC(=O)[C@H](Cc2cccc4ccccc24)NC(=O)[C@H](CCC(=O)O)NC(=O)[C@H](CC(N)=O)NC(=O)[C@@H](C)NC1=O)C(=O)N[C@@H](C)C(=O)N[C@@H](CC(=O)O)C(=O)N[C@@H](Cc1ccccc1)C(=O)N[C@@H](Cc1ccc(O)cc1)C(=O)N[C@@H](CC(=O)O)C(=O)N[C@@H](C(C)(C)C)C(=O)N[C@H](C(N)=O)CSC3 [I-26] ({DOTA}-AC[dA]NE[1Nal]ACADFYD[Tle]C-NH2; linker 2-8-15 via TBMB) | – | – | – | > 5 | tumor uptake compared with the binding variant I-23 (HT1080 tumor; organ distribution, FIG. 8): essentially absent

From US12552837B2, “Bicyclic peptide ligands with detectable moieties and uses thereof” (BicycleRD Limited, priority 2017, dated 2026)
